To fix the notation:
B1: mRNA-splicing (parent)
chain: AGUUGCUGCUGGGAGCUCCAGCACAGUGAAAUGGACAGAAGGGCAGAGCAA

The values that follow come from the RNAGym collection of RNA variant scans (doi:10.1101/gr.219683.116).

The variants in the data set derive from B1. The experiment in a line: exon inclusion enrichment index; higher = more inclusion; WT1 exon 5 minigene, HEK293.
With AGUUUCUUUUGGGAGCUCCAGCACAGUGACCUGGACAGAAGGGCAGAGCAA, the “exon inclusion enrichment index” value was found to be 0.347.

For AGUUAGGGAUGGGAGCUCCAGCACAGUAUAAUGGACAGAAGGGCAGAGCAA, the “exon inclusion enrichment index” value was determined as 0.000814.

For AAAUACCACCGGGAGCUCCAGCACAGUGAAAUGGACAGAAGGGCAGAGCAA, the “exon inclusion enrichment index” value turned out to be 2.08.

Turning to AGUUGCUGCUGGGAGCUCCAGCACAGUGAAAUGGACAGUGGGGCAGAGCAA, the “exon inclusion enrichment index” value was 0.0141.

As for AGUUCUUCUCGGUAGCUCCAGCACAGUGAAAUGGACAGAAGGGCAGAGCAA, the “exon inclusion enrichment index” value stood at 0.0883.

Regarding AGUUCGCGCCGGGAGAACCAGCACAGUGAAAUGGACAGAAGGGCAGAGCAA, the “exon inclusion enrichment index” value was 4.02.

For the variant AGUUGCUGCUGGGAGCCUCAGCACAGUGAAAUGGACAGAAGGGCAGAGCAA, the “exon inclusion enrichment index” value was 1.34.

For AGUUACCACCGGGAGGUCCAGCACAGUGAAAUGGACAGAAGGGCAGAGCAA, the “exon inclusion enrichment index” value was found to be 1.39.

For AGUUAGGGAUGGGAGCUCCAGUCCAGUGAAAUGGACAGAAGGGCAGAGCAA, the “exon inclusion enrichment index” value turned out to be 0.000879.

With AGUUCGCGCCGGGAGCACCAGCACAGUGAAAUGGACAGAAGGGCAGAGCAA, the “exon inclusion enrichment index” value came to 3.8.

For the variant AGUUGAAGAAGGUAGCUCCAGCACAGUGAAAUGGACAGAAGGGCAGAGCAA, the “exon inclusion enrichment index” value was determined as 0.142.

On to AGUUGCUGCUGGGAGCUCCAGCACAGUGAAAUCAACAGAAGGGCAGAGCAA, for which the “exon inclusion enrichment index” value was determined as 0.0659.

Regarding AGUUGCUGCUGGGAGCUCCCUCACAGUGAAAUGGACAGAAGGGCAGAGCAA, the “exon inclusion enrichment index” value was determined as 1.49.

As to AGUAGCCACCGGGAGCUCCAGCACAGUGAAAUGGACAGAAGGGCAGAGCAA, the “exon inclusion enrichment index” value worked out at 0.474.

Take AGUUACCAUAGGGAGCUCCAGCACAGUGAAAUGGACAGAAGGGCAGAGCAA: the “exon inclusion enrichment index” value was found to be 0.0302.

Consider AGUUUCCAUUGGGAGCUCCAGCACAGUGAAAUGGACAGAAGGGCAGAGCAA, for which the “exon inclusion enrichment index” value came to 0.504.

For the variant AGUUGAAGAAGGGAGCUCCAGCACAGUACAAUGGACAGAAGGGCAGAGCAA, the “exon inclusion enrichment index” value was determined as 0.433.

As for AGUUAGGGAUGGGAGCUCCAUCACAGUGAAAUGGACAGAAGGGCAGAGCAA, the “exon inclusion enrichment index” value turned out to be 0.00149.

Consider AGUUCUUCUCGGGGCCUCCAGCACAGUGAAAUGGACAGAAGGGCAGAGCAA, for which the “exon inclusion enrichment index” value turned out to be 0.826.

Take AGUUUCUCGUGGGAGCUCCAGCACAGUGAAAUGGACAGAAGGGCAGAGCAA: the “exon inclusion enrichment index” value worked out at 1.51.

As to AGUUACCACCGGGAGCUCCAGCACAGUGAAAUGGACAGAAGGGCAACGCAA, the “exon inclusion enrichment index” value worked out at 3.08.

As to AGUUCUUCUCGGGAGCUCCAGCACGGUGAAAUGGACAGAAGGGCAGAGCAA, the “exon inclusion enrichment index” value was found to be 3.66.

As to AGUUGCUGCUGGGAUUUCCAGCACAGUGAAAUGGACAGAAGGGCAGAGCAA, the “exon inclusion enrichment index” value turned out to be 0.0329.

As to AGUUAUAUAUGGGAGCUCCAGCACAGUGUAAUGGACAGAAGGGCAGAGCAA, the “exon inclusion enrichment index” value was determined as 0.0147.

On to AGUUGCUGCUGGGAGCUCCAAAACAGUGAAAUGGACAGAAGGGCAGAGCAA, for which the “exon inclusion enrichment index” value was 1.17.

Take AGUUGCUGCUGGGAGCUCCAGCACAGUGAAAUGGACAGAAGGGACGAGCAA: the “exon inclusion enrichment index” value turned out to be 0.767.

With AGUUUCUUUUGGGAGCUCCAGCACAGAGAAAUGGACAGAAGGGCAGAGCAA, the “exon inclusion enrichment index” value came out at 0.208.

For the variant AGUUGACGACGGGAGCUCCAGCACAUCGAAAUGGACAGAAGGGCAGAGCAA, the “exon inclusion enrichment index” value amounted to 4.

As for AGUUUCUUUUGGGAGCUCCAGCACAGUGAAAUGGACAGAACUGCAGAGCAA, the “exon inclusion enrichment index” value was 0.643.

As for AGUUCUUCUCGGGAGCUCCAGCAUGGUGAAAUGGACAGAAGGGCAGAGCAA, the “exon inclusion enrichment index” value was determined as 3.05.

As to AGUUACCACCGCCAGCUCCAGCACAGUGAAAUGGACAGAAGGGCAGAGCAA, the “exon inclusion enrichment index” value was 0.397.

For the variant AGUUCGCGCCGGGAGCUCCAGCACAGUGAAAUUCACAGAAGGGCAGAGCAA, the “exon inclusion enrichment index” value was found to be 1.15.

Consider AGUGUUAUAUGGGAGCUCCAGCACAGUGAAAUGGACAGAAGGGCAGAGCAA, for which the “exon inclusion enrichment index” value is 0.0955.

As for AGUUGAAGAAGGGAGCUCCAGCACAAGGAAAUGGACAGAAGGGCAGAGCAA, the “exon inclusion enrichment index” value amounted to 1.32.

Take AGUUCGCGCCGGGAUUUCCAGCACAGUGAAAUGGACAGAAGGGCAGAGCAA: the “exon inclusion enrichment index” value was determined as 3.3.

With AGUUAUAUAUGGGAGCUCCAGCACAGUGAAAUGGACAGAAGGGCAGGCCAA, the “exon inclusion enrichment index” value was found to be 0.0173.

On to AGUUCGCGCCGGAAGCUCCAGCACAGUGAAAUGGACAGAAGGGCAGAGCAA, for which the “exon inclusion enrichment index” value came to 3.34.

On to AGUUACCACCGGGAGCUCCAGCACAGUGAAAUGGACAGAAGGGCUAAGCAA, for which the “exon inclusion enrichment index” value is 1.75.

On to AGUUCGCGCCGGGAGCUCCAGCACAGUGAAAAUGACAGAAGGGCAGAGCAA, for which the “exon inclusion enrichment index” value came out at 2.76.

Regarding AGUCGGGGAUGGGAGCUCCAGCACAGUGAAAUGGACAGAAGGGCAGAGCAA, the “exon inclusion enrichment index” value is 0.355.

With AGUUGACCGCGGGAGCUCCAGCACAGUGAAAUGGACAGAAGGGCAGAGCAA, the “exon inclusion enrichment index” value stood at 2.26.

As for AGUUUCUUUUGGGAGCUCCAGCACAGUGAAAUGGACAGAAGGGCGCAGCAA, the “exon inclusion enrichment index” value was 0.262.

For the variant AGUUACCACCGGGAGCUCCAGCACUAUGAAAUGGACAGAAGGGCAGAGCAA, the “exon inclusion enrichment index” value came to 2.39.

Turning to AGUUUCCCUUGGGAGCUCCAGCACAGUGAAAUGGACAGAAGGGCAGAGCAA, the “exon inclusion enrichment index” value was 0.364.

Consider AGUUGAAGAAGGGAGCUCCAGCACAGUGAAAUGGACAGAAGGGCAAUGCAA, for which the “exon inclusion enrichment index” value is 0.928.

Consider AGUUCUUCUCGGGAGCUCCAGCGUAGUGAAAUGGACAGAAGGGCAGAGCAA, for which the “exon inclusion enrichment index” value turned out to be 0.696.

As for AGUUCACACAGGGAGCUAUAGCACAGUGAAAUGGACAGAAGGGCAGAGCAA, the “exon inclusion enrichment index” value came to 0.00173.

On to AGUUACCACCGGGAGCUCCAGCACAGUGGUAUGGACAGAAGGGCAGAGCAA, for which the “exon inclusion enrichment index” value amounted to 0.757.

In the case of AGUUGCUGCUGGGAGCUCCAGCACAGUGAAAUGGACAGAAGGGCAGGCCAA, the “exon inclusion enrichment index” value amounted to 0.0501.

Turning to AGUUACCACCGGGAGCUGCAGCACAGUGAAAUGGACAGAAGGGCAGAGCAA, the “exon inclusion enrichment index” value amounted to 2.35.

For AGUUGAAGAAGGGAGCUCCAGCACCGUGAAAUGGACAGAAGGGCAGAGCAA, the “exon inclusion enrichment index” value amounted to 2.61.
